The values below come from the RNAGym collection of RNA variant scans (doi:10.1093/molbev/msab373).

B1: Azoarcus group I ribozyme (parent)
chain: GUGCCUUGCGCCGGGAAACCACGCAAGGGAUGGUGUCAAAUUCGGCGAAACCUAAGCGCCCGCCCGGGCGUAUGGCAACGCCGAGCCAAGCUUCGGCGCCUGCGCCGAUGAAGGUGUAGAGACUAGACGGCACCCACCUAAGGCAAACGCUAUGGUGAAGGCAUAGUCCAGGGAGUGGCGAAAGUCACACAAACCGG

The data set covers variants of B1. As to the kind of experiment: reverse-splicing fitness (ratio to wild type); higher = more active; in vitro selection; Mg2+ level not given. In a few lines: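 An in vitro group I ribozyme library with randomized positions was T7-transcribed and gel-purified. In triplicate, 10 pmol RNA in EPPS pH 7.5 was reacted with 50 pmoles of a 30-nt RNA substrate for 1 h at 37 °C across several added MgCl2 levels (1–48 mM), then stopped with EDTA. Products were reverse transcribed from a substrate-complementary primer, PCR-amplified and sequenced (HiSeq 4000). Fitness is a variant's read proportion after selection over that before, normalised to wild type.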
On to C82U A111C A120U C150A C169G U176A, for which the reverse-splicing fitness amounted to 0.00492.

Consider C82U A120G A145U C150G U176A, for which the reverse-splicing fitness turned out to be 0.00575. Regarding A111C A120G A145G C150A C169U, the reverse-splicing fitness was 0.0326. As for C82G A111G A145G C150A C169U U176G, the reverse-splicing fitness turned out to be 0.00674.

For C82G A111C A120C A145G C150U U176G, the reverse-splicing fitness amounted to 0.00788. As for C82U A111C A120U C150U C169A, the reverse-splicing fitness worked out at 0.00496. In the case of C82U A111G A145U U176C it was 0.258; in that of C82G A120C A145C C150U C169G U176A, 0.0259; in that of C82A A111G A120U A145U C150U C169G U176A, 0.00294. In the case of C82A A111C A120U A145C C150A C169A U176C it was 0.00256; in that of C82A A111C A120G A145C C150U C169U, 0.00644.

As for C82G A120G A145G C169A, the reverse-splicing fitness came to 0.0319. With C82A A120G C150U, the reverse-splicing fitness was 0.0158. In the case of C82U C150A C169G, the reverse-splicing fitness is 0.00731. In the case of C82A A111G A120C A145G C150G C169U U176A it was 0.0129; in that of C82G A111U C150A C169U U176A, 0.0148; in that of A111U A120U A145U C150A C169G U176G, 0.00225. As for C82U A111C A145G C169A U176G, the reverse-splicing fitness turned out to be 0.00741. In the case of C82G A120C C150G C169G, the reverse-splicing fitness was 0.00797. On to C82A A111U A145C C150G C169A U176G, for which the reverse-splicing fitness was determined as 0.00755. In the case of C82A A111U A120U A145G C150A C169U U176C it was 0.00543; in that of C82A A111C A120G A145U C150A U176C, 0.02.

In the case of A111G A120C A145C C150G C169G, the reverse-splicing fitness was found to be 0.00666. Turning to C82U A111U A120C C150G C169G U176G, the reverse-splicing fitness is 0.00402. Regarding C82G A111U A120C A145U C150U C169A, the reverse-splicing fitness is 0.0102. In the case of C82A A111G A145U C150G it was 0.0319; in that of C82A A111G A120G A145G C150A C169G U176G, 0.00592; in that of C82U A111G A120U A145C C169U U176C, 0.00209. As to C82A A111G A120G A145C C150A C169U, the reverse-splicing fitness amounted to 0.00881. For C82G A111C A120C A145U C150G C169A U176G, the reverse-splicing fitness is 0.00726.

For the variant C82U A111C A120G A145C C150A U176A, the reverse-splicing fitness worked out at 0.00897.

Consider A111G C150G C169U U176G, for which the reverse-splicing fitness came out at 0.00532.

For C82U A111U A120G A145U C150A C169A, the reverse-splicing fitness was 0.00884.

As for A111U A145G C150A C169G U176C, the reverse-splicing fitness was 0.0292. As to A120U A145G C150U C169U, the reverse-splicing fitness turned out to be 0.256. In the case of C82A A111G A120U A145C C150A U176A, the reverse-splicing fitness was determined as 0.003. With C82A A111U A120U C150U C169G U176C, the reverse-splicing fitness amounted to 0.00496. Regarding C82U A120G A145C C150U, the reverse-splicing fitness was 0.0102. A111C C150G C169G U176C: the reverse-splicing fitness was determined as 0.00414. As for C82G A120U C150U U176G, the reverse-splicing fitness came out at 0.0119.

As to C82A A120U A145G U176A, the reverse-splicing fitness worked out at 0.0348.

As for A111U A120G A145U C150A C169U U176A, the reverse-splicing fitness stood at 0.0271. In the case of C82G A111G A120G A145G C150U C169U U176A it was 0.0177; in that of C82A A120U A145U C150A C169A, 0.00213; in that of C82A A120C C150A C169A, 0.0115. With A111C C150U U176A, the reverse-splicing fitness was 0.339. Consider A120G A145U C150U C169A U176A, for which the reverse-splicing fitness is 0.08. As to A111C A120G C150A C169G U176G, the reverse-splicing fitness came to 0.00531. On to C82A A111C A145C C150A C169A U176A, for which the reverse-splicing fitness amounted to 0.015. With C82A A120U C150A C169U U176A, the reverse-splicing fitness worked out at 0.00391.

C82G A111U A145U C169U U176C: the reverse-splicing fitness is 0.0128.

For C82G A111C A120G A145G C169U U176A, the reverse-splicing fitness was found to be 0.0161.

As to C82G A120U A145C C150U, the reverse-splicing fitness came to 0.0385. Take C82G A120G C150U C169G U176A: the reverse-splicing fitness came out at 0.0177.

For A145G C150A C169A, the reverse-splicing fitness came out at 0.0304. Take C82G A120C C169G U176A: the reverse-splicing fitness was determined as 0.0172. As to C82G A111C A120C A145C C169G U176C, the reverse-splicing fitness worked out at 0.0205. In the case of C82A A120G A145G C169A U176C, the reverse-splicing fitness worked out at 0.0273. As to C82G A111U A145U, the reverse-splicing fitness amounted to 0.387. In the case of A145C C150A C169U U176A, the reverse-splicing fitness came to 0.023. For the variant C82G A111U A145G C150A U176A, the reverse-splicing fitness was determined as 0.0322. In the case of A111C A120G A145C C169U it was 0.146.

Turning to C82U A111C A120G A145C C150G C169G U176C, the reverse-splicing fitness is 0.00632.

C82G A111G A120G A145C C150U C169A U176C: the reverse-splicing fitness turned out to be 0.00841. Take C82U A145G C150G C169A U176G: the reverse-splicing fitness was 0.00764. For the variant C82U C150G C169A U176A, the reverse-splicing fitness is 0.0115. Turning to C82A A111C A120U A145U C150U U176C, the reverse-splicing fitness is 0.00936. In the case of C82U A111C A120U A145G C150G C169G U176G, the reverse-splicing fitness was 0.00376. For the variant C82U A111G A120C A145U C150U U176G, the reverse-splicing fitness amounted to 0.00565. C82U A111U A120U A145C C150G C169U: the reverse-splicing fitness came out at 0.00284. Turning to C82U A111G A120G C150A C169A, the reverse-splicing fitness amounted to 0.00997. In the case of C82U A111C A120C A145C C150U C169U U176C, the reverse-splicing fitness was 0.0122. In the case of C82A A111G A145G C150A C169A, the reverse-splicing fitness is 0.0118.

For the variant C82U A111G A145G C150U U176A, the reverse-splicing fitness was found to be 0.135. A111G A120U A145G C150U U176A: the reverse-splicing fitness was found to be 0.237.

Regarding A111G A120G C150A C169A U176C, the reverse-splicing fitness came to 0.0244. Regarding C82U A111C C150G U176C, the reverse-splicing fitness was 0.0147. With C82U A111G A120G A145C C150G U176C, the reverse-splicing fitness was found to be 0.00614.

For A120G C169A U176C, the reverse-splicing fitness was determined as 0.189. With A111U A145G C150U C169A U176G, the reverse-splicing fitness worked out at 0.00732. In the case of C82U A111U A120C A145G C150U C169G U176A it was 0.0128. In the case of C82U A111G A120C C169A U176A it was 0.014; in that of C82A A120G C169A U176C, 0.0236; in that of C82U A111U A120C C150U C169U U176G, 0.00524.
